Measurements reported in patent US20180312578A1 (Ablynx, published 2018).
Positions count from the first letter of the chain named. In names and notes the source's numbering stands.

B1: Reference C (SEQ ID NO: 3) (VHH)
VHH: EVQLLESGGGLVQPGGSLRLSCAASGFTFDTSSMLWVRQAPGKGLEWVSVIHQSGTPTYYADSVKGRFTISRDNSKNTLYLQMNSLRAEDTAVYYCAKFPSSRMKFDYWGQGTLVTVSS
notes: Heavy-chain immunoglobulin single variable domain (VH-derived domain antibody); Captured on human serum albumin; also called DOM7r-92-100
B2: Reference D (SEQ ID NO: 4) (VHH)
VHH: B1 VHH
notes: Captured on human serum albumin; also called DOM7r-92-104
B3: Reference D+L11V+V89L (SEQ ID NO: 93) (VHH)
VHH: B1 VHH with L11V, V93L
B4: Reference D+L11V+V89L+T110K (SEQ ID NO: 94) (VHH)
VHH: B1 VHH with L11V, V93L, T116K

Each binder was assayed against T1, human serum albumin (human, UniProt P02768 25-609) (assay: ProteOn SPR, capture on immobilised HSA).
T1 construct: also called HSA
Protocol: In case of binding of pre-existing antibodies on Nanobodies captured on human serum albumin (HSA) was evaluated using the ProteOn XPR36 (Bio-Rad Laboratories, Inc.). PBS/Tween (phosphate buffered saline, pH7.4, 0.005% Tween20) was used as running buffer and the experiments were performed at 25° C. The ligand lanes of a ProteOn GLC Sensor Chip were activated with EDC/NHS (flow rate 30 μl/min) and HSA was injected at 10 μg/ml in ProteOn Acetate buffer pH4.5 (flow rate 100 μl/min) to render immobilization levels of approximately 3200 RU. After immobilization, surfaces were deactivated with ethanolamine HCl (flow rate 30 μl/min). Nanobodies were injected for 2 minutes at 45 μl/min over the HSA surface to render a Nanobody capture level of approximately 200 RU. The samples containing pre-existing antibodies were centrifuged for 2 minutes at 14,000 rpm and supernatant was diluted 1:10 in PBS-Tween20 (0.005%) before being injected for 2 minutes at 45 μl/min followed by a subsequent 400 seconds dissociation step. After each cycle (i.e. before a new Nanobody capture and blood sample injection step) the HSA surfaces were regenerated with a 2 minute injection of HCl (100 mM) at 45 μl/min. Sensorgram processing and data analysis was performed with ProteOn Manager 3.1.0 (Bio-Rad Laboratories, Inc.). Sensorgrams showing pre-existing antibody binding were obtained after double referencing by subtracting 1) Nanobody-HSA dissociation and 2) non-specific binding to reference ligand lane.

Binding result, binds:
B1
B2
B3
B4
